Experimental data as given in patent publication US5688511, “Cellular protein TDP-43 and regulation of HIV-1 gene expression” (Board of Regents, The University of Texas System).

Tests used:
[1] = biological target: T1, TDP-43 full length (thrombin-cleaved) (Homo sapiens, UniProt Q13148 SEQ:1-414); assay: UV crosslinking; details: tags: GST removed by thrombin
[2] = biological target: T2, GST-TDP-43 (7-414) (Homo sapiens, UniProt Q13148 SEQ:7-414); assay: competition; up to 50x excess did not compete; details: tags: N-terminal GST
T2 sequence (Q13148 7-414): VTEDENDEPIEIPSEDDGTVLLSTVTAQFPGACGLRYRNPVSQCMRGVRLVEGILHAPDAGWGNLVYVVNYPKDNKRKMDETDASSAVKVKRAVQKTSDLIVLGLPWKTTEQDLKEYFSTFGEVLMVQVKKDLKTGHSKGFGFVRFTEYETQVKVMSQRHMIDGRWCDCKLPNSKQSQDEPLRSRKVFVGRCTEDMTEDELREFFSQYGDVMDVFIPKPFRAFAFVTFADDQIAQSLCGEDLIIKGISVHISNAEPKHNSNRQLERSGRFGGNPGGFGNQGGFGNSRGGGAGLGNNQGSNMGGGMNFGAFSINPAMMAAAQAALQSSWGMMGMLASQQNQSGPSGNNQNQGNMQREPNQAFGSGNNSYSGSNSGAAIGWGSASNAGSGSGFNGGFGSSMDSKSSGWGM

[3] = biological target: T1, TDP-43 full length (thrombin-cleaved); assay: UV crosslinking, 43 and 86 kDa species, 160 or 800 ng protein; details: tags: GST removed by thrombin; label: 32P
[4] = biological target: GST-TDP-43 (7-166) (Homo sapiens, UniProt Q13148 SEQ:7-166); assay: EMSA; only first RNP-1 retained; bound, affinity higher when both RNP1 and RNP2 present; details: tags: N-terminal GST; label: 32P
Chain of GST-TDP-43 (7-166) (Q13148 7-166): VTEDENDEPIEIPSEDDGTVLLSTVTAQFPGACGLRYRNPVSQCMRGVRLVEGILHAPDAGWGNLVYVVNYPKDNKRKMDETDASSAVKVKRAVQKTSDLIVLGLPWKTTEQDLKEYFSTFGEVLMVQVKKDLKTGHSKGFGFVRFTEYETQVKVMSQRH

[5] = biological target: GST-TDP-43 (7-198) (Homo sapiens, UniProt Q13148 SEQ:7-198); assay: EMSA; part of RNP domain deleted; still bound; details: tags: N-terminal GST; label: 32P
Chain of GST-TDP-43 (7-198) (Q13148 7-198): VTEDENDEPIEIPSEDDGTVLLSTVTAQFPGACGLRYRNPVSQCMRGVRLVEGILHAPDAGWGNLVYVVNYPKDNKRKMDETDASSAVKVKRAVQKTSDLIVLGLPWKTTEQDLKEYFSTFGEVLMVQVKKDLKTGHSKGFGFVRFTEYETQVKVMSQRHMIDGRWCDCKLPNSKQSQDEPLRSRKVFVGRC

[6] = biological target: GST-TDP-43 (7-333) (Homo sapiens, UniProt Q13148 SEQ:7-333); assay: EMSA; glycine-rich domain truncation; bound like wild type; details: tags: N-terminal GST; label: 32P
Chain of GST-TDP-43 (7-333) (Q13148 7-333): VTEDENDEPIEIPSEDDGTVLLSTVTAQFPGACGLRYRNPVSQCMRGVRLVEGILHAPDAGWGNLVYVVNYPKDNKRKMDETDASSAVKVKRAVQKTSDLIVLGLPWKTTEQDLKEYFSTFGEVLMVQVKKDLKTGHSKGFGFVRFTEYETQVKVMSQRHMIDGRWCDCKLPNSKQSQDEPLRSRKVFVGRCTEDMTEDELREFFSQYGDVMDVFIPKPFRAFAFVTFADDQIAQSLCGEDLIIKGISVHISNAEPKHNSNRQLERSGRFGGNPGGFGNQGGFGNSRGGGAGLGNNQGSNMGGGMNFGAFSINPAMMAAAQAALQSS

[7] = biological target: T2, GST-TDP-43 (7-414); assay: EMSA; 50 mM KCl, 5 mM MgCl2, room temperature; competed by 5-50x unlabeled WT; details: tags: N-terminal GST; label: 32P
[8] = biological target: GST-TDP-43 (7-240) (Homo sapiens, UniProt Q13148 SEQ:7-240); assay: EMSA; glycine-rich domain deleted; bound like wild type; details: tags: N-terminal GST; label: 32P
Chain of GST-TDP-43 (7-240) (Q13148 7-240): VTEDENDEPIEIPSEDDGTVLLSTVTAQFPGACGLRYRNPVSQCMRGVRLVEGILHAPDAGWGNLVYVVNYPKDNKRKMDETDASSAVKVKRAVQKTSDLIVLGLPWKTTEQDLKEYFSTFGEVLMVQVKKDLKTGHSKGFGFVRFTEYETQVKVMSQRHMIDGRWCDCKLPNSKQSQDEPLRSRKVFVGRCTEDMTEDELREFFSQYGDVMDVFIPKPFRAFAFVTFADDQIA

[9] = biological target: T2, GST-TDP-43 (7-414); assay: competition; up to 50x excess did not significantly compete; details: tags: N-terminal GST
[10] = biological target: T1, TDP-43 full length (thrombin-cleaved); assay: competition; 50x excess did not compete UV crosslinking; details: tags: GST removed by thrombin
[11] = biological target: T2, GST-TDP-43 (7-414); assay: competition; up to 50x excess did not significantly compete; listed as -46/-13 in Example 8; details: tags: N-terminal GST

T1 sequence (Q13148 whole entry): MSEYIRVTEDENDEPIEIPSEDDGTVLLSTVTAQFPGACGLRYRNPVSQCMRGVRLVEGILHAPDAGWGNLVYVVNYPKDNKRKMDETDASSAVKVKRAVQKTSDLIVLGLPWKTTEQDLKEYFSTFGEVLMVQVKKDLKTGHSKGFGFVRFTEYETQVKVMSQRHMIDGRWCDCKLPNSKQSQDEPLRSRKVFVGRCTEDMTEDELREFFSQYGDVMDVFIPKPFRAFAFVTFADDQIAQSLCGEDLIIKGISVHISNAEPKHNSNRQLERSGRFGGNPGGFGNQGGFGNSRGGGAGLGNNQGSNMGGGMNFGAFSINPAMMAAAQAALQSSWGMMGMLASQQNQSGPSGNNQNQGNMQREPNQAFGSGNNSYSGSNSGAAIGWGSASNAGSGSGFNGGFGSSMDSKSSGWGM

B1: HIV-1 LTR -18/+28 delta1 (dsDNA)
DNA 1: CTGACGTACGTACGTACTGGGTCTCTCTGGTTAGACCAGATCT
DNA 2: AGATCTGGTCTAACCAGAGAGACCCAGTACGTACGTACGTCAG
B1: no binding [1]; no binding [2].

B2: HIV-1 LTR -18/+28 (TAR DNA) WT (dsDNA)
DNA 1: CTGCTTTTTGCCTGTACTGGGTCTCTCTGGTTAGACCAGATCTGAG
DNA 2: CTCAGATCTGGTCTAACCAGAGAGACCCAGTACAGGCAAAAAGCAG
B2: binds [3]; binds [4]; binds [5]. B2: binds [6]; binds [7]; binds [8].

B3: AdMLP TATA (dsDNA)
DNA 1: AAGGGGGGCTATAAAAGGGGGTGGGGG
DNA 2: CCCCCACCCCCTTTTATAGCCCCCCTT
B3: no binding [2].

B4: HIV-1 LTR -45/+1 (dsDNA)
DNA 1: GCGTGCCTCAGATGCTGCATATAAGCAGCAGCTGCTTTTTGCCTGTACT
DNA 2: AGTACAGGCAAAAAGCAGCTGCTGCTTATATGCAGCATCTGAGGCACGC
B4: no binding [9].

B5: HIV-1 LTR +10/+50 (dsDNA)
DNA 1: GGTTAGACCAGATCTGAGCCTGGGAGCTCTCTGGCTAACTAG
DNA 2: CTAGTTAGCCAGAGAGCTCCCAGGCTCAGATCTGGTCTAACC
B5: no binding [9].

B6: HIV-1 LTR -18/+28 delta2 (dsDNA)
DNA 1: CTGCTTTTTGCCTGTACGTACATGCGTACGTTAGACCAGATCT
DNA 2: AGATCTGGTCTAACGTACGCATGTACGTACAGGCAAAAAGCAG
B6: no binding [1]; no binding [2].

B7: HIV-1 LTR -18/+28 delta1+delta2 (dsDNA)
DNA 1: CTGACGTACGTACGTACGTACATGCGTACGTTACGGACCATCT
DNA 2: AGATGGTCCGTAACGTACGCATGTACGTACGTACGTACGTCAG
B7: no binding [2]; no binding [10].

B8: HIV-1 LTR -45/-13 (dsDNA)
DNA 1: GCGTGCCTCAGATGCTGCATATAAGCAGCTGCTTT
DNA 2: AAAGCAGCTGCTTATATGCAGCATCTGAGGCACGC
B8: no binding [11].
